Experimental data from the supplement of paper PMC10567573.

B1: KCNG1 (parent)
chain: LFVTVTAVNLSVSTLPSLREEEEQ
B2: SNAP91 (parent)
chain: FGGSFMAPSPSPVTPAQNNLLQPN
B3: IRX6 (parent)
chain: YPCLEKPRIWSLAHTATASAVEGA

Variants of: B1
Experiment: protein stability index of a GFP-peptide fusion (GPS, HEK-293T) (PSI 1-6); higher = more stable
Details: c terminus: a fixed tail appended
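Also: lentivirally expressed fusions sorted by FACS into six bins by GFP to DsRed ratio, PSI derived from sequencing read proportions per bin multiplied by bin number.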

Variant | protein stability index
LFATVTAVNLSVSTLPSLREEEEQ | 2.67
RFVTVTAVNLSVSTLPSLREEEEQ | 3.04
AFVTVTAVNLSVSTLPSLREEEEQ | 1.78
MFVTVTAVNLSVSTLPSLREEEEQ | 1.98
PFVTVTAVNLSVSTLPSLREEEEQ | 4.33
KFVTVTAVNLSVSTLPSLREEEEQ | 3.84
QFVTVTAVNLSVSTLPSLREEEEQ | 3.71
YFVTVTAVNLSVSTLPSLREEEEQ | 1.97
DFVTVTAVNLSVSTLPSLREEEEQ | 4.52
NFVTVTAVNLSVSTLPSLREEEEQ | 4.05
FFVTVTAVNLSVSTLPSLREEEEQ | 1.95
IFVTVTAVNLSVSTLPSLREEEEQ | 2.27
HFVTVTAVNLSVSTLPSLREEEEQ | 3.62
SFVTVTAVNLSVSTLPSLREEEEQ | 3.56
TFVTVTAVNLSVSTLPSLREEEEQ | 2.62
EFVTVTAVNLSVSTLPSLREEEEQ | 4.32
GFVTVTAVNLSVSTLPSLREEEEQ | 3.23

Variant | protein stability index
CFVTVTAVNLSVSTLPSLREEEEQ | 2.1
LKVTVTAVNLSVSTLPSLREEEEQ | 1.72
LRVTVTAVNLSVSTLPSLREEEEQ | 2.5
LNVTVTAVNLSVSTLPSLREEEEQ | 2.27
LDVTVTAVNLSVSTLPSLREEEEQ | 3.99
LSVTVTAVNLSVSTLPSLREEEEQ | 1.99
LGVTVTAVNLSVSTLPSLREEEEQ | 2.41
LPVTVTAVNLSVSTLPSLREEEEQ | 4.83
LAVTVTAVNLSVSTLPSLREEEEQ | 2.27
LTVTVTAVNLSVSTLPSLREEEEQ | 1.25
LCVTVTAVNLSVSTLPSLREEEEQ | 1.67
LHVTVTAVNLSVSTLPSLREEEEQ | 2.19
LQVTVTAVNLSVSTLPSLREEEEQ | 2.09
LMVTVTAVNLSVSTLPSLREEEEQ | 1.26
LLVTVTAVNLSVSTLPSLREEEEQ | 1.95
LYVTVTAVNLSVSTLPSLREEEEQ | 1.75

Variants of: B2
Experiment: as above
Details: c terminus: a fixed tail appended

Variant | protein stability index
FGGSIMAPSPSPVTPAQNNLLQPN | 4.03
FGGSAMAPSPSPVTPAQNNLLQPN | 3.83
FGGSFMAPSPSPVTPAQNNLRQPN | 2.88
FGGSFMAPSPSPVIPAQNNLLQPN | 1.7
FGGSFMAPSPSPVQPAQNNLLQPN | 2.43
FGGSFMAPSPSPVGPAQNNLLQPN | 2.08
FGGSFMAPSPSPVRPAQNNLLQPN | 1.54
FGGSFMAPSPSPVKPAQNNLLQPN | 2.84
FGGSFMAPSPSPVFPAQNNLLQPN | 1.79
FGGSFMAPSPSPVEPAQNNLLQPN | 1.31
FGGSFMAPSPSPVDPAQNNLLQPN | 1.29
FGGSFMAPSPSPVLPAQNNLLQPN | 2.13
FGGSFMAPSPSPVWPAQNNLLQPN | 1.95
FGGSFMAPSPSPVMPAQNNLLQPN | 2.4
FGGSFMAPSPSPVCPAQNNLLQPN | 4.16
FGGSFMAPSPSPVVPAQNNLLQPN | 2.2
FGGSFMAPSPSPVNPAQNNLLQPN | 1.89
FGDSFMAPSPSPVTPAQNNLLQPN | 2.7
FGTSFMAPSPSPVTPAQNNLLQPN | 2.44
FGNSFMAPSPSPVTPAQNNLLQPN | 3.1
FGVSFMAPSPSPVTPAQNNLLQPN | 2.37
FGGSFMAPSNSPVTPAQNNLLQPN | 1.51
FGGSFMAPSGSPVTPAQNNLLQPN | 2.18
FGGSFMAPSVSPVTPAQNNLLQPN | 1.58

Variant | protein stability index
FGGSFMAPSHSPVTPAQNNLLQPN | 2.52
FGGSFMAPSYSPVTPAQNNLLQPN | 2.38
FGGSFMAPSLSPVTPAQNNLLQPN | 2.55
FGGSFMAPSESPVTPAQNNLLQPN | 1.22
FGGSFMAPSDSPVTPAQNNLLQPN | 2.72
FGGSFMAPSSSPVTPAQNNLLQPN | 2.49
FGGSFMAPSKSPVTPAQNNLLQPN | 3.1
FGGSFMAPSASPVTPAQNNLLQPN | 4.52
FGGSFMAPSQSPVTPAQNNLLQPN | 2.7
FGGSFMAPSCSPVTPAQNNLLQPN | 2.45
FGGSFMAPSMSPVTPAQNNLLQPN | 3.19
FGGSFMAPSFSPVTPAQNNLLQPN | 2.89
FGGSFMAPSWSPVTPAQNNLLQPN | 2.51
FGGSFMAPSRSPVTPAQNNLLQPN | 1.13
FGGSFMAQSPSPVTPAQNNLLQPN | 2.92
FGGSFMACSPSPVTPAQNNLLQPN | 1.64
FGGSFMAHSPSPVTPAQNNLLQPN | 2
FGGSFMARSPSPVTPAQNNLLQPN | 1.85
FGGSFMASSPSPVTPAQNNLLQPN | 2.89
FGGSFMALSPSPVTPAQNNLLQPN | 3.22
FGGSFMANSPSPVTPAQNNLLQPN | 2.42
FGGSFMAMSPSPVTPAQNNLLQPN | 4.32
FGGSFMAYSPSPVTPAQNNLLQPN | 3.9
FGGSFMAWSPSPVTPAQNNLLQPN | 3.12

Variant | protein stability index
FGGSFMAASPSPVTPAQNNLLQPN | 1.54
FGGSFMATSPSPVTPAQNNLLQPN | 3.12
FGGSFMAVSPSPVTPAQNNLLQPN | 2.41
FGGSFMAFSPSPVTPAQNNLLQPN | 2.53
FGGSFMAGSPSPVTPAQNNLLQPN | 2.67
FGGSFMADSPSPVTPAQNNLLQPN | 2.25
FGGSFMAESPSPVTPAQNNLLQPN | 2.24
FGGSFMAPSPQPVTPAQNNLLQPN | 3.14
FGGSFMAPSPVPVTPAQNNLLQPN | 3.42
FGGSFMAPSPLPVTPAQNNLLQPN | 2.84
FGGSFMAPSPMPVTPAQNNLLQPN | 2.83
FGGSFMAPSPEPVTPAQNNLLQPN | 2.38
FGGSFMAPSPKPVTPAQNNLLQPN | 1.98
FGGSFMAPSPRPVTPAQNNLLQPN | 1.68
FGGSFMEPSPSPVTPAQNNLLQPN | 2.06
FGGSFMLPSPSPVTPAQNNLLQPN | 1.87
FGGSFMVPSPSPVTPAQNNLLQPN | 2.54
FGGSFMHPSPSPVTPAQNNLLQPN | 3
FGGSFMQPSPSPVTPAQNNLLQPN | 2.59
FGGSFMDPSPSPVTPAQNNLLQPN | 1.91
FGGSFMAPWPSPVTPAQNNLLQPN | 3.59
FGGSFMAPVPSPVTPAQNNLLQPN | 1.62
FGGSFMAPKPSPVTPAQNNLLQPN | 1.76
FGGSFMAPRPSPVTPAQNNLLQPN | 1.89

Variant | protein stability index
FGGSFMAPQPSPVTPAQNNLLQPN | 1.43
FGGSFMAPMPSPVTPAQNNLLQPN | 2.31
FGGSFMAPEPSPVTPAQNNLLQPN | 1.89
IGGSFMAPSPSPVTPAQNNLLQPN | 3.99
NGGSFMAPSPSPVTPAQNNLLQPN | 3.94
FGGSFRAPSPSPVTPAQNNLLQPN | 2.24
FGGSFVAPSPSPVTPAQNNLLQPN | 2.08
FGGSFMAPSPSPVTRAQNNLLQPN | 2.4
FGGSFMAPSPSPVTAAQNNLLQPN | 1.86
FGGSFMAPSPSPVTNAQNNLLQPN | 1.79
FGGSFMAPSPSPVTTAQNNLLQPN | 2.01
FGGSFMAPSPSPVTCAQNNLLQPN | 4.08
FGGSFMAPSPSPVTGAQNNLLQPN | 2.3
FGGSFMAPSPSPVTMAQNNLLQPN | 3.65
FGGSFMAPSPSPVTLAQNNLLQPN | 1.95
FGGSFMAPSPSPVTKAQNNLLQPN | 1.83
FGGSFMAPSPSPVTWAQNNLLQPN | 1.6
FGGSFMAPSPSPVTYAQNNLLQPN | 2.91
FGGSFMAPSPSPVTFAQNNLLQPN | 2.84
FGGSFMAPSPSPVTSAQNNLLQPN | 2.19
FGGSFMAPSPSPVTQAQNNLLQPN | 2.27
FGGSFMAPSPSPVTHAQNNLLQPN | 2.27
FGGSFMAPSPSPVTEAQNNLLQPN | 1.93
FGGSFMAPSPSPVTVAQNNLLQPN | 2.12

Variant | protein stability index
FGGSFMAPSPSPVTDAQNNLLQPN | 2.67
FGGSFMAPSPSPVTIAQNNLLQPN | 2.65
FRGSFMAPSPSPVTPAQNNLLQPN | 3.23
FYGSFMAPSPSPVTPAQNNLLQPN | 2.53
FGGSFMAPSPSTVTPAQNNLLQPN | 1.01
FGGSFMAPSPSCVTPAQNNLLQPN | 2.72
FGGSFMAPSPSQVTPAQNNLLQPN | 2.21
FGGSFMAPSPSDVTPAQNNLLQPN | 1.8
FGGSFMAPSPSSVTPAQNNLLQPN | 1.27
FGGSFMAPSPSAVTPAQNNLLQPN | 2
FGGSFMAPSPSYVTPAQNNLLQPN | 2.09
FGGSFMAPSPSMVTPAQNNLLQPN | 2.62
FGGSFMAPSPSGVTPAQNNLLQPN | 1.72
FGGSFMAPSPSHVTPAQNNLLQPN | 2.53
FGGSFMAPSPSIVTPAQNNLLQPN | 1.94
FGGSFMAPSPSKVTPAQNNLLQPN | 1.47
FGGSFMAPSPSWVTPAQNNLLQPN | 1.83
FGGSFMAPSPSEVTPAQNNLLQPN | 1.77
FGGSFMAPSPSFVTPAQNNLLQPN | 1.62
FGGSFMAPSPSVVTPAQNNLLQPN | 1.73
FGGSFMAPSPSLVTPAQNNLLQPN | 1.61
FGGSFMAPSPSNVTPAQNNLLQPN | 2.31
FGGSFMAPSPSRVTPAQNNLLQPN | 2.17

Variants of: B3
Experiment: as above
Details: c terminus: a fixed tail appended

Variant | protein stability index
YPCLEKPRIWSLAHTATASAVRGA | 2.98
YPCLEKPRIWSLAHTATASAVSGA | 1.1
YPCLEKPRIWSLAHTATASAVLGA | 2.67
YPCLEKPRIWSLAHTATASAVHGA | 2.05
YPCLEKPRIWSLAHTATASAVKGA | 2.29
YPCLEKPRIWSLAHTATASAVVGA | 2.62
YPCLEKPRIWSLAHTATASAVNGA | 3.13
YPCLEKPRIWSLAHTATASAVMGA | 3.75
YPCLEKPRIWSLAHTATASAVTGA | 2.63
YPCLEKPRIWSLAHTATASAVWGA | 1.73
YPCLEKPRIWSLAHTATASAVPGA | 2.34
YPCLEKPRIWSLAHTATASAVEQA | 1.25
YPCLEKPRIWSLAHTATASAVENA | 2.68
YPCLEKPRIWSLAHTATASAVEYA | 3.63
YPCLEKPRIWSLAHTATASAVEFA | 2.97
YPCLEKPRIWSLAHTATASAVEAA | 2.6
YPCLEKPRIWSLAHTATASAVECA | 1.41
YPCLEKPRIWSLAHTATASAVEWA | 1.98

Variant | protein stability index
YPCLEKPRIWSLAHTATASAVETA | 2.95
YPCLEKPRIWSLAHTATASAVEIA | 3.44
YPCLEKPRIWSLAHTATASAVEEA | 2.33
YPCLEKPRIWSLAHTATASAVELA | 2.7
YPCLEKPRIWSLAHTATASAVESA | 2.13
YPCLEKPRIWSLAHTATASAVEVA | 3.24
YPCLEKPRIWSLAHTATASAVEGY | 3.06
YPCLEKPRIWSLAHTATASAVEGS | 1.91
YPCLEKPRIWSLAHTATASAVEGH | 3.03
YPCLEKPRIWSLAHTATASAVEGK | 3.48
YPCLEKPRIWSLAHTATASAVEGE | 2.22
YPCLEKPRIWSLAHTATASAVEGC | 2.18
YPCLEKPRIWSLAHTATASAVEGD | 2.95
YPCLEKPRIWSLAHTATASAVEGM | 2.52
YPCLEKPRIWSLAHTATASAVEGI | 3.09
YPCLEKPRIWSLAHTATASAVEGV | 3.01
YPCLEKPRIWSLAHTATASAVEGW | 2.31
YPCLEKPRIWSLAHTATASAVEGR | 2.99
